Measured values published in PMC8571082.

Columns and labels:
[1] = target: T1, factor inhibiting HIF-1 (FIH-1), full-length (human), Q9NWT6; test: SEC; FIH-1 alone, wild type at ~7 μM; profiles of FIH-1 WT and L340R; details: remark: other sources report otherwise
[2] = target: T1, factor inhibiting HIF-1 (FIH-1), …; test: SEC-MALS; FIH-1 alone at 70 μM, 50 μl on Superdex 200 10/300 GL; 35 mM Na-phosphate pH 7.5, 300 mM NaCl, 500 μM αKG; details: remark: other sources report otherwise

stoichiometry N [1]: 2
stoichiometry N [2]: 2
B1: factor inhibiting HIF-1 (FIH-1), full-length, Q9NWT6 1-349 (enzyme)
chain: MAATAAEAVASGSGEPREEAGALGPAWDESQLRSYSFPTRPIPRLSQSDPRAEELIENEEPVVLTDTNLVYPALKWDLEYLQENIGNGDFSVYSASTHKFLYYDEKKMANFQNFKPRSNREEMKFHEFVEKLQDIQQRGGEERLYLQQTLNDTVGRKIVMDFLGFNWNWINKQQGKRGWGQLTSNLLLIGMEGNVTPAHYDEQQNFFAQIKGYKRCILFPPDQFECLYPYPVHHPCDRQSQVDFDNPDYERFPNFQNVVGYETVVGPGDVLYIPMYWWHHIESLLNGGITITVNFWYKGAPTPKRIEYPLKAHQKVAIMRNIEKMLGEALGNPQEVGPLLNTMIKGRYN
